In article PMC7283332, “convertibleCARs: A chimeric antigen receptor system for flexible control of activity and antigen targeting” (Communications Biology, 2020):

Target: T1, ULBP2 α1α2 domain, C-terminal 6×-His (human, UniProt Q9BZM5 29-212)
T1 construct: ULBP2, human, α1α2 domains, UniProtKB Q9BZM5 residues 29-212; monomeric protein; also called wild-type ULBP2; MIC-His ligand; source: Expi293 supernatant, purified (Ni-NTA); not shown: His6, C-terminal, kept
T1 sequence (looked up): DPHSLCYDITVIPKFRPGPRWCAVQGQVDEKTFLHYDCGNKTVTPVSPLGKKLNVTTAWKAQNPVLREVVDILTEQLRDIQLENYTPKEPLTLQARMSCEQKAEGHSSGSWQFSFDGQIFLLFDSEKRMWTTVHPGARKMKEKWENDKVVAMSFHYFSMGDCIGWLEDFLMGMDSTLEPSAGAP
Assay: BLI; FortéBio Octet; Fc-wtNKG2D, Fc-iNKG2D.YA or Fc-iNKG2D.AF captured on anti-human IgG Fc capture (AHC) biosensor tips; titration series of monomeric MIC-His ligands or monomeric ULBP2 variants
Conditions: both partners purified

binding result: binds
B1: Fc-wtNKG2D (Fc fusion, human, UniProt P26718 78-216, looked up)
chain: FLNSLFNQEVQIPLTESYCGPCPKNWICYKNNCYQFFDESKNWYESQASCMSQNASLLKVYSKEDQDLLKLVKSYHWMGLVHIPTNGSWQWEDGSILSPNLLTIIEMQKGDCALYASSFKGYIENCSTPNTYICMQRTV
notes: NKG2D wild-type ectodomain, human, UniProtKB P26718 residues 78-216; NKG2D is fused to the C-terminus of the Fc through a factor Xa site linker Ile-Glu-Gly-Arg (IEGR); also called wild-type NKG2D; source: Expi293 cells, secreted, purified (Protein A, SEC); not shown: Fc (human IgG1), N-terminal, kept
